One block for each binder: values may come before it.
Target: T1, full-length human EPHA2 expressed on 293T cells (pcDNA-DEST40-EPHA2) (human, UniProt P29317 24-976)
T1 construct: The stop codon was removed before transfer into pcDNA-DEST40; also called EPHA2-expressing 293T cells
Test: flow cytometry, hybridoma supernatant on EPHA2-transfected 293T cells
Procedure: 293T cells were seeded at a density of 5×10⁴ cells/cm² on a collagen type I-coated flask (IWAKI), and were then cultured in DMEM supplemented with 10% FBS at 37° C. in 5% CO₂ under a humidified atmosphere overnight. On the following day, the 293T cells were transfected with each of pcDNA-DEST40-EPHA2 and pcDNA-DEST40-ERBB2 (negative control), using Lipofectamine 2000 (Invitrogen, Thermo Fisher Scientific), and thereafter, the resulting cells were further cultured at 37° C. in 5% CO₂ under a humidified atmosphere overnight. On the following day, the transfected cells were treated with trypsin, and were then washed with DMEM supplemented with 10% FBS. The resulting cells were suspended in 5% FBS-containing PBS. These cells were used in Cell-ELISA and flow cytometric analysis.
In order to eliminate false-positive results in the Cell-ELISA, the specific binding ability of antibodies generated by the hybridomas that had been determined to be positive in the Cell-ELISA was confirmed by flow cytometry. The cells prepared in the above 1)-6-1 were mixed with a culture supernatant of the hybridomas, and the obtained mixture was then incubated at 4° C. for 1 hour. […]

T1 sequence (P29317 24-976 limits assumed): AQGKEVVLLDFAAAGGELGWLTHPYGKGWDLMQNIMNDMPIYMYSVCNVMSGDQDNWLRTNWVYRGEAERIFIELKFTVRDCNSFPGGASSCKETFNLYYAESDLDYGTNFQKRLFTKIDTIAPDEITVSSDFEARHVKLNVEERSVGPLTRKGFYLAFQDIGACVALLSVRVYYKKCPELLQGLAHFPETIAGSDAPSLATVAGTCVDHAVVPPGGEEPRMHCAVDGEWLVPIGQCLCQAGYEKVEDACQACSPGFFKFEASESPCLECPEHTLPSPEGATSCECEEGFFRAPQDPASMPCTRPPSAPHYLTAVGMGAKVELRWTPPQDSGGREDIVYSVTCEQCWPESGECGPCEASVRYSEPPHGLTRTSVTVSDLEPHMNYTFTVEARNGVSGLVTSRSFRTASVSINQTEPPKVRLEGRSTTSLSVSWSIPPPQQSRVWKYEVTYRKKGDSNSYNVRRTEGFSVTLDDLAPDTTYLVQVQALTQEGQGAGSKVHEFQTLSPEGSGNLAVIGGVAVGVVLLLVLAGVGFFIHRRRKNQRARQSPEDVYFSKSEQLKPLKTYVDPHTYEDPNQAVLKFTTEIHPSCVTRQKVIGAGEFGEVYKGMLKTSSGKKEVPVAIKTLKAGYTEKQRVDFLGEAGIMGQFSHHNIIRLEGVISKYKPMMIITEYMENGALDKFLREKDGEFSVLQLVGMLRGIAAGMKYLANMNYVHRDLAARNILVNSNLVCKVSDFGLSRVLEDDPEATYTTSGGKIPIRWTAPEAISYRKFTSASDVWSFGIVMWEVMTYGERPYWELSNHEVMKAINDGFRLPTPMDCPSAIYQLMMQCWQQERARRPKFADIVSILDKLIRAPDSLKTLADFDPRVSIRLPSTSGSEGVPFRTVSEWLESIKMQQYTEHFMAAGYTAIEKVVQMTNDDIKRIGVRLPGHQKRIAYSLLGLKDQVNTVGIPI

- binding result: binds
B1: mouse anti-EPHA2 monoclonal antibody 230-1 (antibody, V domains shown)
VH: EVQLVESGGGLVKPGGSLKLSCEASGFTFSDYYMYWVRQTPEKRLEWVATISDDGSFTHYLDSVKGRFTISRDNAQNNLYLQMSSLKSDDTAMYYCARDGYRYDRPFAYWGQGTLVTVSA
VL: DIVMTQSHKFMSTSVGDRVRITCKASQDVNTAVAWYQQKPGQSPKLLIYWASTRHTGVPDRFTGSGSGTDYSLTISSVQAEDLALYYCQQHYSTPYTFGGGTKLEIKR
notes: The variable regions were found by 5'-RACE; Used unlabeled as capture antibody and biotin-labeled as detection antibody; also called biotin-labeled antibody 230-1

- binding result: binds
B2: mouse anti-EPHA2 monoclonal antibody 57-1 (antibody, V domains shown)
VH: QIQLVQSGPELKKPGETVKISCKGSGYTFTNYGMNWVKQAPGKGLKWMAWINTDTGEPIFVEEFKGRFAFSLETSASTAYLQINNLTNEDTATYFCARSMGGFANWGQGTLVTVSA
VL: DIVMTQSPATLSVTPGDRVSLSCRASQNISDYLHWYQQKSHESPRLLIKYASQSISGIPSRFSGSGSGSDFTLTINSVEPEDVAMYYCQNGHTFPTFGAGTKLELKR
notes: The variable regions were found by 5'-RACE; Used unlabeled as capture antibody and biotin-labeled as detection antibody; also called biotin-labeled antibody 57-1
